Results taken from patent US20200087347 (published 2020).
Where no end group is shown, it is not given here. Side-chain parts run from the residue outwards. [ ]: non-standard residue; d: D form. The star is where a group is joined. BODIPY(FL) = CC1=CC(C)=[N+]2C1=Cc1ccc(CCC(=O)*)n1[B-]2(F)F; NMeK = CN[C@@H](CCCCN)C(=O)O; Ahx = NCCCCCC(=O)O; BDPFL = dye

Columns and labels:
Experiment in all cases: competition
integrin αvβ8 = target: T1, integrin αvβ8 (human, UniProt P06756)
T1 chain 1: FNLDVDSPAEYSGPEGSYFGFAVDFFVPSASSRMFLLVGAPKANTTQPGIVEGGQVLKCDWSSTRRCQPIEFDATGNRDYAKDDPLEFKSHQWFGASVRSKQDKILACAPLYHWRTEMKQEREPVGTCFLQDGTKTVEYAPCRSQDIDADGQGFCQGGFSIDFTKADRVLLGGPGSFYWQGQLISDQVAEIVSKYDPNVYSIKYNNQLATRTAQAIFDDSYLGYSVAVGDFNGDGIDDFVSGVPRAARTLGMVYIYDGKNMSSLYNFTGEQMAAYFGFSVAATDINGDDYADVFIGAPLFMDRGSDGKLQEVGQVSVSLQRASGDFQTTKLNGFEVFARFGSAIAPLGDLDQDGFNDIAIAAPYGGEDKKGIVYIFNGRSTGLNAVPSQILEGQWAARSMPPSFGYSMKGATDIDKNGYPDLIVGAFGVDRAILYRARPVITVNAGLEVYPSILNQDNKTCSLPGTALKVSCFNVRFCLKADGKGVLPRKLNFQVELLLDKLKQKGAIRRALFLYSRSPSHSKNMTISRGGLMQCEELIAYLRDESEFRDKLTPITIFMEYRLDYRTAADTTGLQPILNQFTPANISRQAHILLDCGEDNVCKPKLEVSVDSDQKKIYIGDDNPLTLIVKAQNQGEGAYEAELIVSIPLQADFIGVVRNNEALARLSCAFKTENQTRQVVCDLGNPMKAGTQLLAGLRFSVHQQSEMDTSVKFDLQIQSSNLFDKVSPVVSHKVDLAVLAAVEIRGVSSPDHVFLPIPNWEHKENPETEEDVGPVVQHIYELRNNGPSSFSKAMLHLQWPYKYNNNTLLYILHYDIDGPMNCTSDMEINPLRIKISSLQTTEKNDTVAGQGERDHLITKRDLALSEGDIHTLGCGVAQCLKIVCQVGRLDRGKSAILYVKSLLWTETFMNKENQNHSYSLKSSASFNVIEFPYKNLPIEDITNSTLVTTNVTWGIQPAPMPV
T1 chain 2: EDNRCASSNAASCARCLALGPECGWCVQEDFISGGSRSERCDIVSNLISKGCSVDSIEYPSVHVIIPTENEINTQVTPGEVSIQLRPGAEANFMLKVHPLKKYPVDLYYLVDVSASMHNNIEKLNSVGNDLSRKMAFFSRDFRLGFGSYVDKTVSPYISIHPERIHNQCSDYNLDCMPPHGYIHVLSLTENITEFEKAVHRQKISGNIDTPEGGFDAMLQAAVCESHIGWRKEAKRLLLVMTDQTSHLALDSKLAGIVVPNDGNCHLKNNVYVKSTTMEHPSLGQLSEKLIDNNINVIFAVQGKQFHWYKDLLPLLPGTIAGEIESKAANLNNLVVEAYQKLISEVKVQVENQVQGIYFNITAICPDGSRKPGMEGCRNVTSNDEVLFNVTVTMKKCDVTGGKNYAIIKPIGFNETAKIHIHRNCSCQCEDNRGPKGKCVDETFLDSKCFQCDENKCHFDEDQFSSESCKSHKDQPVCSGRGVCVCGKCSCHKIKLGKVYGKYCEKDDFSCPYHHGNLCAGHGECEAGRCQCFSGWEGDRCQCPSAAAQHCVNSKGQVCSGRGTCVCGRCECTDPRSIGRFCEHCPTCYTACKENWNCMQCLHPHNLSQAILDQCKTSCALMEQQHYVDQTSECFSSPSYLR

integrin αvβ6 = target: T2, integrin αvβ6 (human, UniProt P06756)
T2 chain 1: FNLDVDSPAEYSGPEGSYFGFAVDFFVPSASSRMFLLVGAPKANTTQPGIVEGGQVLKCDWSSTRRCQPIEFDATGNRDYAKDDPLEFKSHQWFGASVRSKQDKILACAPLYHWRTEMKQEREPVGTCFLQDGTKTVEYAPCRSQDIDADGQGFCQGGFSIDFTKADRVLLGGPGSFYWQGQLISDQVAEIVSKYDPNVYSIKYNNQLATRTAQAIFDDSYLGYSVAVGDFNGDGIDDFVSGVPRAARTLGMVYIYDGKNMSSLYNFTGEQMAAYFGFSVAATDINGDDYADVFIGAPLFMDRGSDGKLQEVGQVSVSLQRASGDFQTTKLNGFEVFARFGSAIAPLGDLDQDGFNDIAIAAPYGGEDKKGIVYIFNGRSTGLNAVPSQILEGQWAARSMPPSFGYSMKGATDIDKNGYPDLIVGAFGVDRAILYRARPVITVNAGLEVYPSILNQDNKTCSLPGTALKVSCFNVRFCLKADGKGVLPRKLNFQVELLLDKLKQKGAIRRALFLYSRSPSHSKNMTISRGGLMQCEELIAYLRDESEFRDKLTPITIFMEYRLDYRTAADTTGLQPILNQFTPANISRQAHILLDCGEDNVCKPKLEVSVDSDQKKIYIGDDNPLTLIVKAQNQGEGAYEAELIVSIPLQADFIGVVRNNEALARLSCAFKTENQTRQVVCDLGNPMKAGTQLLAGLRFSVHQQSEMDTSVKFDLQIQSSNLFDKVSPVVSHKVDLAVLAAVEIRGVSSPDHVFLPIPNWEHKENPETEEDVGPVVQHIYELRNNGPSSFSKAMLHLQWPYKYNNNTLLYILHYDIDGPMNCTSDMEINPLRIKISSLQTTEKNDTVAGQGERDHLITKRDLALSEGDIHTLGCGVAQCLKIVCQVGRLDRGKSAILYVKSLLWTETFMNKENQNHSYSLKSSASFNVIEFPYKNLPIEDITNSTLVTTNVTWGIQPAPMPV
T2 chain 2: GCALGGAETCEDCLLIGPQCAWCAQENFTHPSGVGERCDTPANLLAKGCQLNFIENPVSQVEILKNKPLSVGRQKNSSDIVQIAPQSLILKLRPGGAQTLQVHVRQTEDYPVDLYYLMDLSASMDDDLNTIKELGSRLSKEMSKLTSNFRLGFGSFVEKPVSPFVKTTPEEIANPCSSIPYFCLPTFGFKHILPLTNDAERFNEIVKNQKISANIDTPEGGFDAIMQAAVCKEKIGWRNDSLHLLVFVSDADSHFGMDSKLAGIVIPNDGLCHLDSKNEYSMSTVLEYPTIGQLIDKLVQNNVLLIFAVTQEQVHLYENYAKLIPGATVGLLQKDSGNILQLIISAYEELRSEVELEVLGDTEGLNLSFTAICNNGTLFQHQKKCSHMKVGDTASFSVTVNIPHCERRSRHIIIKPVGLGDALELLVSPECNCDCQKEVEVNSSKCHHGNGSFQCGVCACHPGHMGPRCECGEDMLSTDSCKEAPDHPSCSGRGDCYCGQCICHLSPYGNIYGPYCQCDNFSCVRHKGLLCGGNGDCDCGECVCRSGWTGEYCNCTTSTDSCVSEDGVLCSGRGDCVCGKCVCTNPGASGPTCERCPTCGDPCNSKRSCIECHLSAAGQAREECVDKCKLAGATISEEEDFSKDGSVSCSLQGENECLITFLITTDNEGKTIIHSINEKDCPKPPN

integrin αvβ5 = target: T3, integrin αvβ5 (human, UniProt P06756)
T3 chain 1: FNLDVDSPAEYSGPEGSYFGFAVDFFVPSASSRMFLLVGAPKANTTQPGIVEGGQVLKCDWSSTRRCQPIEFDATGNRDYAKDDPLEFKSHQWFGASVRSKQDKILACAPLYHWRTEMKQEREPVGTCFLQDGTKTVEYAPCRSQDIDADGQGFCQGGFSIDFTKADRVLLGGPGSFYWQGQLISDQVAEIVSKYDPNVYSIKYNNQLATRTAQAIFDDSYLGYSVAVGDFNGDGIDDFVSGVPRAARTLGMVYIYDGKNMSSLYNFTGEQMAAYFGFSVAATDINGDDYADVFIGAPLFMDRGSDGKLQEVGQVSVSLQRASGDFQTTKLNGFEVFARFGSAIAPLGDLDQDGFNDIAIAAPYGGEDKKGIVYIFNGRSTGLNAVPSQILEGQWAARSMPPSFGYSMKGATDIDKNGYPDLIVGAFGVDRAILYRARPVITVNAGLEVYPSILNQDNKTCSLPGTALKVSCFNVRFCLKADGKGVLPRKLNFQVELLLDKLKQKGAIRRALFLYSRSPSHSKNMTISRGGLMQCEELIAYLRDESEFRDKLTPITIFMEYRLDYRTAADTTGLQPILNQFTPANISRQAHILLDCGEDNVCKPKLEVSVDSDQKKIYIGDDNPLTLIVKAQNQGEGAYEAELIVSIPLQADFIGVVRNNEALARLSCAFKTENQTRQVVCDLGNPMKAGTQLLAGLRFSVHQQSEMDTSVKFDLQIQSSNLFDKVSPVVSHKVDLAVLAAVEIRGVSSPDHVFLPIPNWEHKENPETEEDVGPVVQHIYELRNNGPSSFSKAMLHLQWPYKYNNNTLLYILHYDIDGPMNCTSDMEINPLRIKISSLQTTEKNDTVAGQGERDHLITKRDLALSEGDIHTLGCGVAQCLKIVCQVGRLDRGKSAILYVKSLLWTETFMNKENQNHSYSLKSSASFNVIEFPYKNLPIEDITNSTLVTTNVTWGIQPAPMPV
T3 chain 2: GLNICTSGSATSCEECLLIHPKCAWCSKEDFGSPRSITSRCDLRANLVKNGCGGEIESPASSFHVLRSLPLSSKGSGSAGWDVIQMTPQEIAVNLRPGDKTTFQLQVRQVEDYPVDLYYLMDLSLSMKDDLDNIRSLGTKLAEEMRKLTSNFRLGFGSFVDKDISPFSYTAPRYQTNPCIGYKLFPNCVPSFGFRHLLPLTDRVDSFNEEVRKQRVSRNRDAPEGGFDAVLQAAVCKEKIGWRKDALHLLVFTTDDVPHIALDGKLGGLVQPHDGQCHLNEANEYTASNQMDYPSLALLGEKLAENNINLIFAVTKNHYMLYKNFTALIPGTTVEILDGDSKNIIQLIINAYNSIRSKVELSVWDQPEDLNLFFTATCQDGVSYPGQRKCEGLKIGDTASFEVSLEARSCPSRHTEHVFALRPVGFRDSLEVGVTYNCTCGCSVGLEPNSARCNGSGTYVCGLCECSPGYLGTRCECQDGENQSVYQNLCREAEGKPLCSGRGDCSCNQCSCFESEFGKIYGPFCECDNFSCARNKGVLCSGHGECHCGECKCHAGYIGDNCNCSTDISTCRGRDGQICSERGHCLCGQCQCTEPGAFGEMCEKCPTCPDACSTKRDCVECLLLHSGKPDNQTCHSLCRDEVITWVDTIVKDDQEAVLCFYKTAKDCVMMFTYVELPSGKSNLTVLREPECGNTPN

integrin α5β1 = integrin α5β1 (human, UniProt P08648)
integrin α5β1, sequence (P08648 42-1049, chain 1 of 2): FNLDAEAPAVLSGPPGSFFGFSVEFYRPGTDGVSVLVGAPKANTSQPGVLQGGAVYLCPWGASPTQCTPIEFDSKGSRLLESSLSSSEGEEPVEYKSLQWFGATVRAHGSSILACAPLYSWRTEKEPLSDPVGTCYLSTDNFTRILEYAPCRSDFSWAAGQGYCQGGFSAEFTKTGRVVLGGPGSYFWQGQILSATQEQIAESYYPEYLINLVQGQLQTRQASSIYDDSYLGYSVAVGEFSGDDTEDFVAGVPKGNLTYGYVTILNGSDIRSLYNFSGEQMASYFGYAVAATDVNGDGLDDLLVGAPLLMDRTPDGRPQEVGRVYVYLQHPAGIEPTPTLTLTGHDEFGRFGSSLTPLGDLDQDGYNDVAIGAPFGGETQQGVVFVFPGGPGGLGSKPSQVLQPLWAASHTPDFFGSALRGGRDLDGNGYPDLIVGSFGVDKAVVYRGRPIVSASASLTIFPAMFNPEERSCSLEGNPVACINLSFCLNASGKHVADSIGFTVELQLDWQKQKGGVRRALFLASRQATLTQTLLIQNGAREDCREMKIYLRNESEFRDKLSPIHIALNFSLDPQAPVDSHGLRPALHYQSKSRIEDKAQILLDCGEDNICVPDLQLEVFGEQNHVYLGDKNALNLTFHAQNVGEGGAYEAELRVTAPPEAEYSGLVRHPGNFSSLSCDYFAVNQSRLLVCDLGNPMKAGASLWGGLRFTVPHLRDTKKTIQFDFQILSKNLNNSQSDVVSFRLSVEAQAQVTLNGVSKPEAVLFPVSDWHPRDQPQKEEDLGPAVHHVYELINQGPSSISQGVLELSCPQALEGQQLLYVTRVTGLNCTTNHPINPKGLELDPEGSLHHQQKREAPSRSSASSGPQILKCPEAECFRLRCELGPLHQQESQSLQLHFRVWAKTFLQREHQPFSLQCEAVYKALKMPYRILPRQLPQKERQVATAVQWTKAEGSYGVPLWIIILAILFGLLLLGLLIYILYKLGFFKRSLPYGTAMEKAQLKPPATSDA
integrin α5β1, sequence (chain, as listed by the source, chain 2 of 2): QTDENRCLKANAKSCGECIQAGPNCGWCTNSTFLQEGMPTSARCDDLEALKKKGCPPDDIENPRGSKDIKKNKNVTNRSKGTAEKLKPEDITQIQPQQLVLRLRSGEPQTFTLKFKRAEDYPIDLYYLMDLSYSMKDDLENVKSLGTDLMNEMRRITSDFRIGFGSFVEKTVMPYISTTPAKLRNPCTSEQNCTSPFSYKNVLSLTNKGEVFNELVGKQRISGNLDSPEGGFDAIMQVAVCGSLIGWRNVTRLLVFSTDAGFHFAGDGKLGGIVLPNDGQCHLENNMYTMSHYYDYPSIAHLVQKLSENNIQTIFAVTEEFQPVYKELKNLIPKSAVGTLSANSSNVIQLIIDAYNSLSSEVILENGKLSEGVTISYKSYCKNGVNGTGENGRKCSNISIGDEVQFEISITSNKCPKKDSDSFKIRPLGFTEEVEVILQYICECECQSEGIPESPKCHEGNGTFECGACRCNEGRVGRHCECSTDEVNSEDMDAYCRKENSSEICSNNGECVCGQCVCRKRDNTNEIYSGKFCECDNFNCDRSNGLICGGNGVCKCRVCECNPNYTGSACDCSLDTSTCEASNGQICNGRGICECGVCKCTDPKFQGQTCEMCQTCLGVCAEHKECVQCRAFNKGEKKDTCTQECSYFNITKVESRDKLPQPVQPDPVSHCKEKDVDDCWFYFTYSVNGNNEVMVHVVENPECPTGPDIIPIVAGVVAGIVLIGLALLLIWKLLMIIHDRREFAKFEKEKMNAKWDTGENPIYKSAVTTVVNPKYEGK

integrin αvβ3 = target: T4, integrin αvβ3 (human, UniProt P06756)
T4 chain 1: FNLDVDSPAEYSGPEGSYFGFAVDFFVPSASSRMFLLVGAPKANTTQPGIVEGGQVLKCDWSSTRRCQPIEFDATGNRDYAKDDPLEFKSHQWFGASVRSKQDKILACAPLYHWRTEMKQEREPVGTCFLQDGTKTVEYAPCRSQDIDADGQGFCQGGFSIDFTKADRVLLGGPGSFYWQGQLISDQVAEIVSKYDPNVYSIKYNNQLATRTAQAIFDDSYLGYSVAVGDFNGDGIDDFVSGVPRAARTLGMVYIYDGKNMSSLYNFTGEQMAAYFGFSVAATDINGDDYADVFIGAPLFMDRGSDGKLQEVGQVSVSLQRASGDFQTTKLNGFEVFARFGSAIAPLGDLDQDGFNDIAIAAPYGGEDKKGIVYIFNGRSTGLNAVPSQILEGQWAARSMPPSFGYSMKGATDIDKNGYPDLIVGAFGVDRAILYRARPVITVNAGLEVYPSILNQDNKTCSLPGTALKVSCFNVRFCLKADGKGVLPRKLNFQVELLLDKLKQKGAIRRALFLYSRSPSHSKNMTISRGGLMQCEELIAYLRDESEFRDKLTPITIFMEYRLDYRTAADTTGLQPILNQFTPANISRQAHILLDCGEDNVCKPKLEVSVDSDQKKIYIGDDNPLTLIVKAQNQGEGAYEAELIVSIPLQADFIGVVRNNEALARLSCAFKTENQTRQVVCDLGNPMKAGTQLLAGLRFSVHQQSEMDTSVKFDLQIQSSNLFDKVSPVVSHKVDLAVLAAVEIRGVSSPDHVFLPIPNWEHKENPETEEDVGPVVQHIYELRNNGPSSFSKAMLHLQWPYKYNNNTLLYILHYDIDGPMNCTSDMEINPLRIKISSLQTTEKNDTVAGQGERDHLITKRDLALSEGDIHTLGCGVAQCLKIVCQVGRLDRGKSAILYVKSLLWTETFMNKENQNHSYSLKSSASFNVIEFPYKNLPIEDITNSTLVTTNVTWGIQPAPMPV
T4 chain 2: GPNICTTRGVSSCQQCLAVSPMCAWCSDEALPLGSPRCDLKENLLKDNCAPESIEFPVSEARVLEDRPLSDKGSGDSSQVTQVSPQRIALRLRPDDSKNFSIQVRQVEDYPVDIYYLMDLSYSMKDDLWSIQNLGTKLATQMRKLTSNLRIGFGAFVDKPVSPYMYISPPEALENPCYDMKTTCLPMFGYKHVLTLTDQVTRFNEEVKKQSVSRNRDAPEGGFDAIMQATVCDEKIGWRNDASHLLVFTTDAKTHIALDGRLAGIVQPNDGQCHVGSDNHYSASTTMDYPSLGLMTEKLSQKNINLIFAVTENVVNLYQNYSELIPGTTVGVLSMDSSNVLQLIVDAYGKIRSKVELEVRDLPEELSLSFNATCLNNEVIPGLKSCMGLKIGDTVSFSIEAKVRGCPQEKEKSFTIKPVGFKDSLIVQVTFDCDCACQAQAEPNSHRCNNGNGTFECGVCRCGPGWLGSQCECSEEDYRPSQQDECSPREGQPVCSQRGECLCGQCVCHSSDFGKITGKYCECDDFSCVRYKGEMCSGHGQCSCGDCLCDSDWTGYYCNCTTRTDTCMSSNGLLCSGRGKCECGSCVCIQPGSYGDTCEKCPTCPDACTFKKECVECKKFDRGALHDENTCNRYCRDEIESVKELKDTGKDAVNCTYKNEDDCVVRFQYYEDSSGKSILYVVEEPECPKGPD

integrin αIIbβ3 = integrin αIIbβ3 (human, UniProt P08514)

| Binder | IC50 (integrin αvβ8) [nM] | IC50 (integrin αvβ6) [nM] | IC50 (integrin αvβ5) [µM] | IC50 (integrin α5β1) [nM] | IC50 (integrin αvβ3) [nM] | IC50 (integrin αIIbβ3) [nM] |
| --- | --- | --- | --- | --- | --- | --- |
| RGDL[dP][NMeK]([Gly-Pro-Pro-Pro-Gly-BODIPY(FL)])GL (not fully specified (bridges); also: cyclic, closure not given here) [Compound 9e (9-G(P)3G-BDPFL)] | 2.07 | 247 | > 10 | 979 | 585 |  |
| cyclo(RGDL[dP][NMeK](BDPFL)GL) [Compound 9a (9-BDPFL)] | 0.66 | 94 | > 10 | 1470 | 676 |  |
| cyclo(RGDL[dP][NMeK]([Ahx-BDPFL])GL) [Compound 9b (9-Ahx-BDPFL)] | 0.87 | 55 | > 10 | > 1000 | 239 | > 1000 |
